# Measurements as given in patent publication US20210030857A1 (NGM BIOPHARMACEUTICALS, published 2021).
# Columns and labels:
# [1] = biological target: T1, human beta klotho / human FGFR1c receptor complex on cells (human, UniProt Q86Z14 1-1044; P11362 22-822); test: cell-based or functional assay
# [2] = biological target: T1, human beta klotho / human FGFR1c …; test: cell-based or functional assay; remark: listed apart in the source
# [3] = biological target: T2, human beta klotho expressed on cells (human, UniProt Q86Z14 1-1044); test: FACS competition on HuKLB-overexpressing cells; row antibody unlabelled; competitor 3I13-Alexa488 (labelled, EC10); MFI of the label
# T2 construct: also called HuKLB overexpressing cells; Human KLB
# T2 sequence: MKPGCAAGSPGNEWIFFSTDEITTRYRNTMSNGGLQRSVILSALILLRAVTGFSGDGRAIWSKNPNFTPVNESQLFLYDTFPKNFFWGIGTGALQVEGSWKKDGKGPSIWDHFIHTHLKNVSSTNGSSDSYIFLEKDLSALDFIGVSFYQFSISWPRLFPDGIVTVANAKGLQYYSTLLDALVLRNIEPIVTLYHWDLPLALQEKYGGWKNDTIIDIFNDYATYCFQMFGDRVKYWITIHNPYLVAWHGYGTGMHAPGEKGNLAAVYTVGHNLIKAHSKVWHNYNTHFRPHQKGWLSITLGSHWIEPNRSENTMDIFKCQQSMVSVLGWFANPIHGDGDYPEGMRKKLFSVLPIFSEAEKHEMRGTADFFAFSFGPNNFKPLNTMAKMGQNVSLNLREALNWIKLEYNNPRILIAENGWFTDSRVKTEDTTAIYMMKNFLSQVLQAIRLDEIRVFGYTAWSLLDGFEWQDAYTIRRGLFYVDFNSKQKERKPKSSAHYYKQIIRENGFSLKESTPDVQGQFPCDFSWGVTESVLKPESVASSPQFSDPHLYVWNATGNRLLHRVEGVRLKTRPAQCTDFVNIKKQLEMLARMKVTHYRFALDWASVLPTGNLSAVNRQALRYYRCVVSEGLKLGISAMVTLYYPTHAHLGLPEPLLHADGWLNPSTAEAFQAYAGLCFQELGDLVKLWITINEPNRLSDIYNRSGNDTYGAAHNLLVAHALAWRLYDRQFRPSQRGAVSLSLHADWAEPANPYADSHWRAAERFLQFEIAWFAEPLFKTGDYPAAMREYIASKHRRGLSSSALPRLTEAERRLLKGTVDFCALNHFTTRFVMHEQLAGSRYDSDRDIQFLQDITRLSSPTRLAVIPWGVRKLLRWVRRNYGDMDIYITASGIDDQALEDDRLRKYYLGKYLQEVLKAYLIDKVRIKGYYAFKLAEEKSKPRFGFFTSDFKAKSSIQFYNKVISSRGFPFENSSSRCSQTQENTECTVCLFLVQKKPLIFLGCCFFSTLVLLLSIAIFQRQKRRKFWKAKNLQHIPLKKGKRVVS
# Protocol: (§1) For example, for competition binding assays by FACS analysis, antibody standards were prepared that were conjugated to a fluorochrome using either A488 or A647 antibody labeling kit (Invitrogen) following manufacturer's instructions. A dose titration of the conjugated antibody standard was evaluated using HuKLB overexpressing cells. The plateau of the maximal signal of antibody binding is EC=100 and the background signal is EC=0. Competition by FACS against the fluorochrome labeled antibody was performed by pre-incubating HuKLB overexpressing cells with hybridoma supernatants for 15 minutes at room temperature. Without washing, an EC=10 concentration of A488 or A647 labelled antibody standard was added. EC=10 for an individual antibody was determined by 10% of signal using the maximum signal as (100%) and background signal as (0%). After 30 minutes at 4° C., cells are washed and analyzed by FACS. […] A partial competing antibody is one sample that show signal between labelled antibody alone and background. Antibodies that show complete competition against the same standard antibody are considered to be in the same bin.
# (§2) Representative results are shown in Table 12 below reported as mean fluorescence intensity (MFI).
# [4] = biological target: T2, human beta klotho expressed on cells; test: FACS competition on HuKLB-overexpressing cells; row antibody unlabelled; competitor 5H23-Alexa647 (labelled, EC10); MFI of the label
# Protocol: as §1, §2
# [5] = biological target: cynomolgus beta klotho / human FGFR1c receptor complex on cells (cynomolgus monkey (Macaca …)); test: cell-based or functional assay
# [6] = biological target: T1, human beta klotho / human FGFR1c …; test: cell-based or functional assay; remark: listed apart in the source
# [7] = biological target: T3, cynomolgus monkey beta klotho protein (soluble, used in Biacore) (cynomolgus monkey (Macaca fascicularis), UniProt Q86Z14 53-996 (human entry), limits assumed); test: Biacore SPR (as in Example 2)
# T3 construct: Protein in solution; also called Cyno KLB; cyKLB
# T3 chain: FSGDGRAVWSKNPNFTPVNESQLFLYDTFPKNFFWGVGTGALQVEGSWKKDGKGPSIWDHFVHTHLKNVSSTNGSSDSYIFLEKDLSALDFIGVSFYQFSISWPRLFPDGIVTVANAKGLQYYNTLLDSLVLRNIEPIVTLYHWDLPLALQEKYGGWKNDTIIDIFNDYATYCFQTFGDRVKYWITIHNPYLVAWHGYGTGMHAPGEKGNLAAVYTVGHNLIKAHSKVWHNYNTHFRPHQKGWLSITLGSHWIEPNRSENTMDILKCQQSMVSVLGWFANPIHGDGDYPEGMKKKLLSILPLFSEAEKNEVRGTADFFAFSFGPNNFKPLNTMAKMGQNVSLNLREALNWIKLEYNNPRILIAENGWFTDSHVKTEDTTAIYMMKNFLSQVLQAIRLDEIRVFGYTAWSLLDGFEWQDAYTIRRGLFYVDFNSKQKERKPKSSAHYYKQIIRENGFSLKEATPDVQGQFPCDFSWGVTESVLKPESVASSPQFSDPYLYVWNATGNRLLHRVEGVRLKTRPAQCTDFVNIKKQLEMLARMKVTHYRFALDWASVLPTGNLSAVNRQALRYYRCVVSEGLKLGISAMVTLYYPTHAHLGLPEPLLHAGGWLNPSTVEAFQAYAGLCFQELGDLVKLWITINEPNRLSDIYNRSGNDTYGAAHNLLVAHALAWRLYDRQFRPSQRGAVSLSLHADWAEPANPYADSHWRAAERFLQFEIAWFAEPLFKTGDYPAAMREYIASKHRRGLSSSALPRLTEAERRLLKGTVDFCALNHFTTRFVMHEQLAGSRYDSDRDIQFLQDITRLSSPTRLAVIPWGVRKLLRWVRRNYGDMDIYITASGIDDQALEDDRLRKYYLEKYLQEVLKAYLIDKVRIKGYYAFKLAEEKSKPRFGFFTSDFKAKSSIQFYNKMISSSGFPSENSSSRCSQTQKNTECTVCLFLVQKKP
# [8] = biological target: T4, human beta klotho protein (soluble, used in Biacore) (human, UniProt Q86Z14 53-997, limits assumed); test: Biacore SPR (as in Example 2)
# T4 construct: also called HuKLB; huKLB
# T4 sequence: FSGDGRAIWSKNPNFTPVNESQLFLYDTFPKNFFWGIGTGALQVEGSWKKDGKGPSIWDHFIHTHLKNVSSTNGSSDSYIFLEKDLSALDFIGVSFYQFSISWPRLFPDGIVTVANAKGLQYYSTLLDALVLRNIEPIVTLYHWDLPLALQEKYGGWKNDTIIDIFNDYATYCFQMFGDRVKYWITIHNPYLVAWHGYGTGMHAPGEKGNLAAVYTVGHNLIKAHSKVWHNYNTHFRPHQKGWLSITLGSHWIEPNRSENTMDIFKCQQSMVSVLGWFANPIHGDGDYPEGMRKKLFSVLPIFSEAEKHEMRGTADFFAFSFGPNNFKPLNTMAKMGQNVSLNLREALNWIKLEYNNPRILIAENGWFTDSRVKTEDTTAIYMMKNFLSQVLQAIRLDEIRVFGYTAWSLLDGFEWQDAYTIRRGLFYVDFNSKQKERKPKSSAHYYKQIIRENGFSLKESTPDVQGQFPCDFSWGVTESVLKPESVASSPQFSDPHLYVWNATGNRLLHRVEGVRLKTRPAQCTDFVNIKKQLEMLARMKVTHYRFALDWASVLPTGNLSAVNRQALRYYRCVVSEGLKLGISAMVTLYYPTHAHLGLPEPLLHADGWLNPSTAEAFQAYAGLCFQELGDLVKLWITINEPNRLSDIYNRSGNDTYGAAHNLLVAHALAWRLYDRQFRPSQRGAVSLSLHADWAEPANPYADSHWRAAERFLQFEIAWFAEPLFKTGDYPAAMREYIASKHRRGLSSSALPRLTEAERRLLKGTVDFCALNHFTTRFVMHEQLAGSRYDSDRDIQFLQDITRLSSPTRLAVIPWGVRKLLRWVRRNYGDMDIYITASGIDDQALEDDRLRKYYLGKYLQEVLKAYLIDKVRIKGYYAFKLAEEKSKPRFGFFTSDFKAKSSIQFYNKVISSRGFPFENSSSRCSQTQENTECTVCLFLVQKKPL
# cynomolgus beta klotho / human FGFR1c receptor complex on cells (cynomolgus monkey (Macaca …)), sequence (chain, as listed by the source limits assumed, chain 1 of 2): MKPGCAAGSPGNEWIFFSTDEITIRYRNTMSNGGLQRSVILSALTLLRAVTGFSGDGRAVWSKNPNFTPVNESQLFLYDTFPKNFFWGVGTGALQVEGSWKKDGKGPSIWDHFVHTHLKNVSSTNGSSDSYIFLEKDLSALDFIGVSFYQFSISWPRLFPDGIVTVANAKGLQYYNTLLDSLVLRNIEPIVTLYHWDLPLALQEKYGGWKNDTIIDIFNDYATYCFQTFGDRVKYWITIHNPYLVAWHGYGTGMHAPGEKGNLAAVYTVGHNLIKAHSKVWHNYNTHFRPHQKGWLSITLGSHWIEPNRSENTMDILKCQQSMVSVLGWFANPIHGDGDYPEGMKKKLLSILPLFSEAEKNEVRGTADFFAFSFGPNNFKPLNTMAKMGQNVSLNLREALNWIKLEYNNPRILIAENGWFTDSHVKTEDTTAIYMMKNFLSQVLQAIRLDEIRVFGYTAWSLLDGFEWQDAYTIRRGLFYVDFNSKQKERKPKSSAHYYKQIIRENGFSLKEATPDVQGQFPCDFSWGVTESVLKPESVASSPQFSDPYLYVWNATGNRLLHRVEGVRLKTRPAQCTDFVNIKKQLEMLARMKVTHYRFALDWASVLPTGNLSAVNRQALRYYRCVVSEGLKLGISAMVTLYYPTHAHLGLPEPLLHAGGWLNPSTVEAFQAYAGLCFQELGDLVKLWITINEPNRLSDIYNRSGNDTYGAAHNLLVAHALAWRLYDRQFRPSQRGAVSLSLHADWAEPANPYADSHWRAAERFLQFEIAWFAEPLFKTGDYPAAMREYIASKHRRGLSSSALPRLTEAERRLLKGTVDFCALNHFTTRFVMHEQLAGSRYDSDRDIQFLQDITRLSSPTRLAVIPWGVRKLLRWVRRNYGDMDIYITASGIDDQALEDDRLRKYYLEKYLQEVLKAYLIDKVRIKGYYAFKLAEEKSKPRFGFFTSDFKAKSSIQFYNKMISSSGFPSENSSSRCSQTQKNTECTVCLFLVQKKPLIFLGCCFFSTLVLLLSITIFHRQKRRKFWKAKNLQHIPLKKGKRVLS
# cynomolgus beta klotho / human FGFR1c receptor complex on cells (cynomolgus monkey (Macaca …)), sequence (chain, as listed by the source limits assumed, chain 2 of 2): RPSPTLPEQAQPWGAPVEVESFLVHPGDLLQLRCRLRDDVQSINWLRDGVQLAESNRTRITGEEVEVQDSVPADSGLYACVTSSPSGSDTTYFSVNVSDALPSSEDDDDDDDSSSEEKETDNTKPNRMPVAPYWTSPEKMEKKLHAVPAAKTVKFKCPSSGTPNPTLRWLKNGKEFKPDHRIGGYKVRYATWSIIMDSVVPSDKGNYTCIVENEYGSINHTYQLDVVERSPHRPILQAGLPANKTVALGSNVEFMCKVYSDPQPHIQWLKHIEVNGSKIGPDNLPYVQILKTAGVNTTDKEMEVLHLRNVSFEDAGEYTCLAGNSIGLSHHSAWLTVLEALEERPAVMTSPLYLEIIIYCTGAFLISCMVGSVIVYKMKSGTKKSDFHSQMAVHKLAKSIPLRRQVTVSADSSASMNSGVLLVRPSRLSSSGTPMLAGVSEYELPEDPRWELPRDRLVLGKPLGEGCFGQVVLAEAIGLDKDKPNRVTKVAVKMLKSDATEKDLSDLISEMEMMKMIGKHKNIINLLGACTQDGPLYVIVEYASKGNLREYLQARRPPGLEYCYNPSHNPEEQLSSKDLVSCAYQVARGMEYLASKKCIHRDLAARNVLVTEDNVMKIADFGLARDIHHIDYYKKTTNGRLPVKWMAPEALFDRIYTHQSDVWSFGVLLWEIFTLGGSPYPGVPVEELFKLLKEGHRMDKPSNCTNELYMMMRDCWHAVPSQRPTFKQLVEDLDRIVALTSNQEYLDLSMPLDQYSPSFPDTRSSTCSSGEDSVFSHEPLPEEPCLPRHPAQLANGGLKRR
Binder,"hAdip pERK assay EC50, Experiment - B [1] [nM]","HEK293 huKLB/R1c reporter assay EC50, Experiment - A [2] [pM]","HEK293 huKLB/R1c reporter assay EC50, Experiment - B [2] [pM]",Mean Florescence Intensity (MFI) [3] [MFI],Mean Florescence Intensity (MFI) [4] [MFI],"HEK293 cynoKLB/R1c reporter assay EC50, Experiment - A [5] [pM]","HEK293 cynoKLB/R1c reporter assay EC50, Experiment - B [5] [pM]",EC50-adipocyte [6] [pM],EC50 reporter assay [6] [pM],Kd [7] [pM],Kd [8] [pM]
"antibody 1G19 (antibody, V domains shown, Murine monoclonal antibody) VH: QVQLQESGPGLVKPSQSLSLTCSVTGYSITSGYYWNWIRQFPGNKLEWMGYINYGGSNNYNPSLKNRISITRDTSKNQFFLKLTSVTTEDTATYYCARRGAYYSNYDSFDVWGTGTTVTVSS VL: DIKMTQSPSSMYASLGERVTITCKASQDINSYLSWFQQKPGKSPKTLIYRANRLVDGVPSRFSGSGSGQDYSLTISSLEYEEMGIYYCLQYDEFPYTFGGGTKLEIK",1.3,231,127,29,2.2,2350,2450,–,–,–,–
"humanized 5H23 antibody vH3-vL2 (antibody, human IgG1, kappa, V domains shown, Probably the same antibody as m13; also called vH3 (vL2 group)) VH: QVQLQQSGAEVKKPGASVKVSCKASGYTFTSYDINWVRQAPGQGLEWIGWIYPGDGSTKYNEKFKGKATITRDTSASTAYMELSSLRSEDTAVYFCARSDYYGSRSFAYWGQGTLVTVSS VL: DIVMTQSPDSLAVSLGERATINCRASKSVSTSGYVYMHWYQQKPGQPPKLLIYLASYLESGVPDRFSGSGSGTDFTLTISSVQAEDVAVYYCQHSRDLTFPFGGGTKLEIKR",–,–,–,–,–,–,–,5500,680,590,230
